The source of these data is the supplement of paper PMC10126150.

± gives the standard deviation of the averaged measurements.
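Also: ATP exposure 15 min at 22 °C before imaging.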

For the data set, the system named is ATP. In words: switch fluorescence ratio, 500 uM ATP over buffer (Cy3 cluster intensity, sum of 5 cycles each) (fold (ratio)); higher = stronger signal-on switching upon ATP binding; sequences stand for … in TCGTCGGCAGCGTCAGATGTGTATAAGAGACAGTTTTTTTTTTTTTTTTTTTTTTTTT…TC. The conditions noted are these: aptamer strand: ATP DNA aptamer (quencher-CACCTGGGGGAGTATTGCGGAGGAAGG + anchor), 100 nM annealed; ATP concentration: 500 uM. An outline of the steps: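 Cy3-labelled switching-strand clusters on a modified Illumina MiSeq flow-cell were annealed to 100 nM quencher-labelled ATP aptamer and imaged first in selection buffer, then after 15 min with 500 uM ATP at 22 °C. NaOH stripping and re-annealing separated each of five buffer/ATP cycles, and clusters outside 100-1000 RFU were excluded. The fluorescence ratio sums target-cycle Cy3 intensity over buffer-cycle Cy3 intensity per cluster and averages it per switch-domain sequence.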
On to TTTTGGAGGT, for which the switch fluorescence ratio amounted to 1.01 ± 0.013.
With CATGTTTTGT, the switch fluorescence ratio was determined as 1.02 ± 0.017.
For CTGCCCTCGC, the switch fluorescence ratio worked out at 1.094 ± 0.0089.
In the case of TTCCGACCGG it was 1.28 ± 0.38; in that of GTTGCTAGAG, 1.006 ± 0.0035; in that of ATAATGGGCG, 0.995 ± 0.058.
Consider AACTGGGGGT, for which the switch fluorescence ratio came out at 1.02 ± 0.017.
As for AAGTTGTGAA, the switch fluorescence ratio turned out to be 1.01 ± 0.017.
The same measure for AAAGGAAAGT: 1.01 ± 0.02; for CAGCTAGTGG: 1.011 ± 0.0011; for TGATAATAGG: 0.989 ± 0.021.
The same measure for TTTGTGGTAG: 0.984 ± 0.011; for CATGGGGCTA: 1.02 ± 0.031.
In the case of AAGGGGGCGA it was 0.982 ± 0.019; in that of AGTGGCTTCC, 2.043 ± 0.013.
Turning to CAAGATTTAT, the switch fluorescence ratio was found to be 0.99 ± 0.023.
In the case of TTCTATTTAA it was 1.02 ± 0.029; in that of TATCATGGGA, 0.9982 ± 0.0087.
The same measure for CGGGCGCACT: 1.06 ± 0.037; for GCGTTTTCGT: 0.972 ± 0.013; for TAAGGTGAGG: 1.04 ± 0.023.
The same measure for AGGTGACAGT: 0.982 ± 0.021.
CTGGTTAGGT: the switch fluorescence ratio is 1.01 ± 0.02.
The same measure for ACCCGAGCAC: 2.13 ± 0.054; for AAGGGGAGGA: 0.989 ± 0.016; for TGCCCTTTTT: 1.01 ± 0.095.
The same measure for GGGCATAGAT: 1.03 ± 0.05; for ATGAGAGCGG: 0.996 ± 0.096; for GGGGTAAGAA: 0.981 ± 0.034.
In the case of GGAACAGGGT it was 0.934 ± 0.072; in that of GCTGGCAGAC, 1.23 ± 0.032; in that of ATAAGGGGTA, 0.98 ± 0.019.
As for TACATTTCCA, the switch fluorescence ratio came out at 1.04 ± 0.04.
The same measure for ATTACGCTGG: 1.01 ± 0.024; for GGGAAATGTG: 1 ± 0.023.
In the case of ATGTGCAGCG it was 1.025 ± 0.0049; in that of AGAGGGGTAT, 1.04 ± 0.017.
Take ATCAGGGCGG: the switch fluorescence ratio was 0.9887 ± 0.0089.
In the case of GGGATGGATA it was 1.03 ± 0.085.
For the sequence GGTCCTTAAT, the switch fluorescence ratio was found to be 0.989 ± 0.025.
In the case of GTGTGTCCGG it was 0.987 ± 0.026; in that of TGAATGCTGA, 0.961 ± 0.017; in that of TATGCGCAGA, 1.01 ± 0.03.
In the case of AAGCTCAATC it was 1.05 ± 0.032; in that of CGTTGAAAGT, 0.991 ± 0.015.
The same measure for GTTATAAGTC: 1.01 ± 0.026; for GGTTACCAGA: 0.9973 ± 0.0065.
AAAGAAGCTT: the switch fluorescence ratio is 1.02 ± 0.041.
The same measure for ATCAAAATTT: 1.03 ± 0.028.
Regarding ATTCAGTTAT, the switch fluorescence ratio came out at 0.997 ± 0.021.
Turning to GTATGGGGGC, the switch fluorescence ratio is 0.974 ± 0.063.
The same measure for TAAATGTTAA: 0.9889 ± 0.0051.
In the case of TCGTAGTGGG it was 1.01 ± 0.054; in that of AGGGGGGAAC, 1.01 ± 0.024.
Consider GGTGAGGGAG, for which the switch fluorescence ratio stood at 0.9998 ± 0.0044.
Regarding ATTTTGCTGG, the switch fluorescence ratio turned out to be 0.999 ± 0.011.
Take TGTAATGGGT: the switch fluorescence ratio was determined as 1 ± 0.029.
The same measure for CTGGTTTTGT: 1.04 ± 0.014; for AACAGTCGCG: 0.968 ± 0.024; for GTTTTCGGTT: 1.013 ± 0.0056.
In the case of CGGGTTCCGA it was 0.998 ± 0.024; in that of GGGGTATCGA, 0.998 ± 0.039; in that of ATTTCAGCGA, 1.09 ± 0.014.
On to TGGTTTTTTC, for which the switch fluorescence ratio stood at 1.01 ± 0.033.
In the case of CCAGTGGGGC it was 1.01 ± 0.072.
The same measure for GTGGTTGGAA: 0.963 ± 0.022.
